These results are taken from patent publication US20240287172A1 (SCIRHOM, published 2024).

For one assay, the target named is T1, hiR2-FL-D504A-T7 (human, UniProt Q6PJF5 1-856).
T1 construct: reduced surface expression reported
T1 sequence: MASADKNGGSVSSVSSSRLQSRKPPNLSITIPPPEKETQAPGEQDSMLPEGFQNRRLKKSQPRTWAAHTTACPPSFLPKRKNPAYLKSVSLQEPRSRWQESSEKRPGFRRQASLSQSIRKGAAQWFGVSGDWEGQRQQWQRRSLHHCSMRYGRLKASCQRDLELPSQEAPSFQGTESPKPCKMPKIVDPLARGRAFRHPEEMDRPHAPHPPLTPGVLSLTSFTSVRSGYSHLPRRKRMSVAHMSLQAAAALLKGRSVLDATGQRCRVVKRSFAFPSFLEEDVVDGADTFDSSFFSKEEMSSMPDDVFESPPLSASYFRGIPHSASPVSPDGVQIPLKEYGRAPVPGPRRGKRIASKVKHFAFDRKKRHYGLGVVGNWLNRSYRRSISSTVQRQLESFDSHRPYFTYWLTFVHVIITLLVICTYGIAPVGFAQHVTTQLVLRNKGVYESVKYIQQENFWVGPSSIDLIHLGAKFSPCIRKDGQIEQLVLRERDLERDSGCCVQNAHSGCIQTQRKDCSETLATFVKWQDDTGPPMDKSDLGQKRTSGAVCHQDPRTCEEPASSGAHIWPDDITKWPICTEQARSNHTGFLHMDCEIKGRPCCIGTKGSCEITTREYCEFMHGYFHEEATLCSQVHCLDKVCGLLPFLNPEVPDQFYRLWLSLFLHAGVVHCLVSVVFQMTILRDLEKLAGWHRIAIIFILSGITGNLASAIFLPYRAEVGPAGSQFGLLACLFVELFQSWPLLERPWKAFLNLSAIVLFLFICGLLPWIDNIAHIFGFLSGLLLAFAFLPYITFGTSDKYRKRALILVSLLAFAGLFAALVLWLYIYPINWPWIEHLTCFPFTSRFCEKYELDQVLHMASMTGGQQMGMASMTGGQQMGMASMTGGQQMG
As to the kind of experiment: FACS on MEF-DKO cells expressing the variant, 3 µg/ml antibody. Summed up: (§1)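 Cells stained with purified antibody at 3 μg/ml for 1 h on ice, then with PE-conjugated goat anti-mouse IgG F(ab′)2 (1:100) for 1 h on ice in the dark. Binding read by flow cytometry; buffer-only staining as control.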

The target of the next assay is T2, hiR2-FL-P532A-T7 (human, UniProt Q6PJF5 1-856).
T2 sequence: T1 sequence with A504D, P532A
The description is as above. An outline of the steps: as §1

Positions count from the first letter of the chain named. Some results are limits rather than exact numbers.

B1: antibody 48 (antibody, V domains shown)
VH: QVQLQQSGTELVRPGTSVKVSCKASGYAFTNYLIEWVKQRPGQGLEWIGVINPGSGFTKYNEKFKGKATLTADKSSSTVYMHLSSLTSEDSAVYFCARGLYRAMDYWGQGTSVTVSS
VL: DIQMTQSPASQSASLGESVTITCLASQTIATWLAWYQQKPGKSPQLLIYGATTLADGVPSRFSGGGSGTKFSFKISSLQAEDFVSYYCQQLYSTPYTFGGGTKLEIK
notes: mouse IgG, kappa light chain; also called clone #48; purified antibody 48
Consider B1, for which the “loss of binding vs wild type” value with hiR2-FL-D504A-T7 was at least 60%.

B2: antibody 50 (antibody, V domains shown)
VH: B1 VH with T9A, T16A, T30S, V79A, H82Q
VL: B1 VL with A30G, G50A, T52A, T53S, S85N, L91I
notes: mouse IgG, kappa light chain; also called clone #50; purified antibody 50
With B2, the “loss of binding vs wild type” value with hiR2-FL-D504A-T7 was at least 60%.

B3: antibody 5 (antibody, V domains shown)
VH: QVTLKESGPGILQPSQTLSLTCSFSGFSLSTFGMGVGWIRQPSGKGLEWLAHIWWDDEKYYNSALKSRLTISKATSKNQAFLKIANVDTADTATYYCARISNYGSNYWYFNVWGTGTTVTVSS
VL: QVVLTQSPALMSASPGEKVTMTCSAGSSVSCMYWYQQKPGSSPRVLIYDTSNLASGVPARFTGSGSGTSYSLTISRMEAEDAASYYCQQWNSYPLTFGAGTKLELK
notes: mouse IgG, kappa light chain; also called clone #5; purified antibody 5
Regarding B3, the “loss of binding vs wild type” value in the assay with hiR2-FL-P532A-T7 is at least 30%.

B4: antibody 44 (antibody, V domains shown)
VH: B3 VH with G44E, E58D, S63P, A74D, A80I, A85T, D91E, A98S, S101G, N111D
VL: QIVLTQSPAVMSASPGEKVTMTCTASSSVYYMYWYQQTPGSSPRLLIYDTSNLASGVPVRFSGSGSGTSYSLTISRMEAEDAATYYCQQWNTYPLTFGAGTKLELK
notes: mouse IgG, kappa light chain; also called clone #44; purified antibody 44
For the molecule B4, the “loss of binding vs wild type” value with hiR2-FL-P532A-T7 was at least 30%.
